± gives the standard deviation of the averaged measurements.
Experiment: total protein half-life in vivo (active degradation + dilution); higher = more stable protein
[1] = E. coli NCM3722 delta-clpP delta-lon delta-hslV, growth: N-lim chemostat, doubling time 6 h
[2] = E. coli NCM3722 delta-lon, growth: N-lim chemostat, doubling time 6 h
[3] = E. coli NCM3722 delta-smpB, growth: N-lim chemostat, doubling time 6 h
[4] = wild type E. coli NCM3722, growth: C-lim chemostat, doubling time 3 h
[5] = wild type E. coli NCM3722, growth: C-lim chemostat, doubling time 6 h
[6] = wild type E. coli NCM3722, growth: C-lim chemostat, doubling time 12 h
[7] = wild type E. coli NCM3722, growth: N-lim chemostat, doubling time 6 h
[8] = wild type E. coli NCM3722, growth: N-lim chemostat, doubling time 12 h
[9] = wild type E. coli NCM3722, growth: P-lim chemostat, doubling time 6 h
[10] = E. coli NCM3722 delta-clpP, growth: N-lim chemostat, doubling time 6 h
[11] = E. coli NCM3722 delta-hslV, growth: N-lim chemostat, doubling time 6 h
[12] = wild type E. coli NCM3722, growth: P-lim chemostat, doubling time 12 h

Row | Sequence | total protein half-life in vivo [1] [h] | total protein half-life in vivo [2] [h] | total protein half-life in vivo [3] [h] | total protein half-life in vivo [4] [h] | total protein half-life in vivo [5] [h] | total protein half-life in vivo [6] [h] | total protein half-life in vivo [7] [h] | total protein half-life in vivo [8] [h] | total protein half-life in vivo [9] [h] | total protein half-life in vivo [10] [h] | total protein half-life in vivo [11] [h] | total protein half-life in vivo [12] [h]
1 | MLSNDILRSVRYILKANNNDLVRILALGNVEATAEQIAVWLRKEDEEGFQRCPDIVLSSFLNGLIYEKRGKDESAPALEPERRINNNIVLKKLRIAFSLKTDDILAILTEQQFRVSMPEITAMMRAPDHKNFRECGDQFLRYFLRGLAARQHVKKG | 5.25 ± 0.12 | 6.64 ± 0.089 | 5.21 ± 0.48 | 3.21 ± 0.69 | 6.3 ± 0.61 | 11.7 ± 1 | 5.08 ± 0.49 | 8.7 ± 0.92 | 4.99 ± 0.15 |  |  | 
2 | MLSTQFNRDNQYQAITKPSLLAGCIALALLPSAAFAAPATEETVIVEGSATAPDDGENDYSVTSTSAGTKMQMTQRDIPQSVTIVSQQRMEDQQLQTLGEVMENTLGISKSQADSDRALYYSRGFQIDNYMVDGIPTYFESRWNLGDALSDMALFERVEVVRGATGLMTGTGNPSAAINMVRKHATSREFKGDVSAEYGSWNKERYVADLQSPLTEDGKIRARIVGGYQNNDSWLDRYNSEKTFFSGIVDADLGDLTTLSAGYEYQRIDVNSPTWGGLPRWNTDGSSNSYDRARSTAPDWAYNDKEINKVFMTLKQQFADTWQATLNATHSEVEFDSKMMYVDAYVNKADGMLVGPYSNYGPGFDYVGGTGWNSGKRKVDALDLFADGSYELFGRQHNLMFGGSYSKQNNRYFSSWANIFPDEIGSFYNFNGNFPQTDWSPQSLAQDDTTHMKSLYAATRVTLADPLHLILGARYTNWRVDTLTYSMEKNHTTPYAGLVFDINDNWSTYASYTSIFQPQNDRDSSGKYLAPITGNNYELGLKSDWMNSRLTTTLAIFRIEQDNVAQSTGTPIPGSNGETAYKAVDGTVSKGVEFELNGAITDNWQLTFGATRYIAEDNEGNAVNPNLPRTTVKMFTSYRLPVMPELTVGGGVNWQNRVYTDTVTPYGTFRAEQGSYALVDLFTRYQVTKNFSLQGNVNNLFDKTYDTNVEGSIVYGTPRNFSITGTYQF |  |  |  | 3.33 ± 0.05 |  | > 16 |  |  |  |  |  | 
3 | MLTLLHLLSAVALLVWGTHIVRTGVMRVFGARLRTVLSRSVEKKPLAFCAGIGVTALVQSSNATTMLVTSFVAQDLVALAPALVIVLGADVGTALMARILTFDLSWLSPLLIFIGVIFFLGRKQSRAGQLGRVGIGLGLILLALELIVQAVTPITQANGVQVIFASLTGDILLDALIGAMFAIISYSSLAAVLLTATLTAAGIISFPVALCLVIGANLGSGLLAMLNNSAANAAARRVALGSLLFKLVGSLIILPFVHLLAETMGKLSLPKAELVIYFHVFYNLVRCLVMLPFVDPMARFCKTIIRDEPELDTQLRPKHLDVSALDTPTLALANAARETLRIGDAMEQMMEGLNKVMHGEPRQEKELRKLADDINVLYTAIKLYLARMPKEELAEEESRRWAEIIEMSLNLEQASDIVERMGSEIADKSLAARRAFSLDGLKELDALYEQLLSNLKLAMSVFFSGDVTSARRLRRSKHRFRILNRRYSHAHVDRLHQQNVQSIETSSLHLGLLGDMQRLNSLFCSVAYSVLEQPDEDEGRDEY [P0AF43] | 6.4 |  |  |  | 5.38 ± 0.19 |  | 6.48 | 10.5 ± 4.5 | 6.1173 ± 0.0061 | 6.35 ± 0.26 | 5.73 ± 0.74 | 11.55 ± 0.033
4 | MLTRLREIVEKVASAPRLNEALNILVTDICLAMDTEVCSVYLADHDRRCYYLMATRGLKKPRGRTVTLAFDEGIVGLVGRLAEPINLADAQKHPSFKYIPSVKEERFRAFLGVPIIQRRQLLGVLVVQQRELRQYDESEESFLVTLATQMAAILSQSQLTALFGQYRQTRIRALPAAPGVAIAEGWQDATLPLMEQVYQASTLDPALERERLTGALEEAANEFRRYSKRFAAGAQKETAAIFDLYSHLLSDTRLRRELFAEVDKGSVAEWAVKTVIEKFAEQFAALSDNYLKERAGDLRALGQRLLFHLDDANQGPNAWPERFILVADELSATTLAELPQDRLVGVVVRDGAANSHAAIMVRALGIPTVMGADIQPSVLHRRTLIVDGYRGELLVDPEPVLLQEYQRLISEEIELSRLAEDDVNLPAQLKSGERIKVMLNAGLSPEHEEKLGSRIDGIGLYRTEIPFMLQSGFPSEEEQVAQYQGMLQMFNDKPVTLRTLDVGADKQLPYMPISEENPCLGWRGIRITLDQPEIFLIQVRAMLRANAATGNLNILLPMVTSLDEVDEARRLIERAGREVEEMIGYEIPKPRIGIMLEVPSMVFMLPHLAKRVDFISVGTNDLTQYILAVDRNNTRVANIYDSLHPAMLRALAMIAREAEIHGIDLRLCGEMAGDPMCVAILIGLGYRHLSMNGRSVARAKYLLRRIDYAEAENLAQRSLEAQLATEVRHQVAAFMERRGMGGLIRGGL | 5.82 ± 0.99 | 4.53 ± 0.17 | 4.44 ± 0.084 | 3.06 ± 0.15 | 5.78 ± 0.21 | 10.7 ± 0.17 | 4.37 ± 0.11 | 7.03 ± 0.12 | 6.54 ± 0.36 | 5.146 ± 0.0092 | 4.39 ± 0.15 | 11.5 ± 1.8
5 | MLTSFKLHSLKPYTLKSSMILEIITYILCFFSMIIAFVDNTFSIKIYNITAIVCLLSLILRGRQENYNIKNLILPLSIFLIGLLDLIWYSAFKVDNSPFRATYHSYLNTAKIFIFGSFIVFLTLTSQLKSKKESVLYTLYSLSFLIAGYAMYINSIHENDRISFGVGTATGAAYSTMLIGIVSGVAILYTKKNHPFLFLLNSCAVLYVLALTQTRATLLLFPIICVAALIAYYNKSPKKFTSSIVLLIAILASIVIIFNKPIQNRYNEALNDLNSYTNANSVTSLGARLAMYEIGLNIFIKSPFSFRSAESRAESMNLLVAEHNRLRGALEFSNVHLHNEIIEAGSLKGLMGIFSTLFLYFSLFYIAYKKRALGLLILTLGIVGIGLSDVIIWARSIPIIIISAIVLLLVINNRNNTIN |  |  | 5.65 ± 0.45 | 3.42 |  |  |  |  |  |  |  | 
6 | MLTVIAEIRTRPGQHHRQAVLDQFAKIVPTVLKEEGCHGYAPMVDCAAGVSFQSMAPDSIVMIEQWESIAHLEAHLQTPHMKAYSEAVKGDVLEMNIRILQPGI [P0ADU2] | 5.001 ± 0.017 | 5.31 ± 0.5 | 4.72 ± 0.06 | 3.14 ± 0.34 | 5.35 ± 0.099 | 10.4 ± 0.39 | 4.36 ± 0.28 | 7 ± 0.33 | 5.84 ± 0.12 |  | 4.57 ± 0.38 | 11.6 ± 0.82
